From patent US20250121089A1, “COMPOSITIONS AND METHODS FOR ENHANCING THE EFFECT OF A TROP-2 SPECIFIC THERAPEUTIC” (priority 2023, published 2025)

Tests used:
A549 cells [1] = assay: Cytotoxic effect (cell count by flow cytometer), TTFields with or without Sacituzumab Govitecan; format: cell-based, human; details: concomitant with TTFields 1.62 V/cm RMS, 150 kHz, 72 h; FIG. 3
Protocol: (§1) Tests were performed on three different cell types: A549, A2780 and 4T1. A549 cells are adenocarcinomec human alveolar basal epithelial cells. A2780 is a human ovarian cancer cell line. 4T1 is a breast cancer cell line derived from the mammary gland tissue of a mouse BALB/c strain.
(§2) NSCLC cells A549 were treated for 72 h with TTFields at an intensity of 1.62 V/cm RMS and a frequency of 150 kHz using the Inovitro system. TTFields were applied to the cells in the absence or presence of the Trop2 inhibitor Sacituzumab Govitecan. Treated cells were counted using a flow cytometer, and cytotoxic effect was calculated relative to control cells.

A549 cells [2] = assay: Apoptosis, annexin V / 7AAD flow cytometry, TTFields with or without Sacituzumab Govitecan; format: cell-based, human; details: concomitant with TTFields 1.62 V/cm RMS, 150 kHz, 72 h, FIG. 5
Protocol: Tests were performed on three different cell types: A549, A2780 and 4T1. A549 cells are adenocarcinomec human alveolar basal epithelial cells. A2780 is a human ovarian cancer cell line. 4T1 is a breast cancer cell line derived from the mammary gland tissue of a mouse BALB/c strain. […] NSCLC cells A549 were treated for 72 h with TTFields at an intensity of 1.62 V/cm RMS and a frequency of 150 kHz using the Inovitro system. TTFields were applied to the cells in the absence or presence of the Trop2 inhibitor Sacituzumab Govitecan. Treated cells were double-stained with FITC-conjugated annexin V and 7-aminoactinomycin D (7AAD), and data acquisition was performed using a flow cytometer.

4T1 cells [3] = assay: Cytotoxic effect (cell count by flow cytometer), TTFields with or without Sacituzumab Govitecan; format: cell-based, mouse; details: concomitant with TTFields 1.62 V/cm RMS, 150 kHz, 72 h; FIG. 9
Protocol: as §1
as §2, with “Mammary carcinoma” for “NSCLC”, “4T1” for “A549”

A2780 cells [4] = assay: Apoptosis, annexin V / 7AAD flow cytometry, TTFields with or without Sacituzumab Govitecan; format: cell-based, human; details: concomitant with TTFields 1.62 V/cm RMS, 200 kHz, 72 h, FIG. 8
Protocol: Tests were performed on three different cell types: A549, A2780 and 4T1. A549 cells are adenocarcinomec human alveolar basal epithelial cells. A2780 is a human ovarian cancer cell line. 4T1 is a breast cancer cell line derived from the mammary gland tissue of a mouse BALB/c strain. […] Ovarian carcinoma cells A2780 were treated for 72 h with TTFields at an intensity of 1.62 V/cm RMS and a frequency of 200 kHz using the Inovitro system. TTFields were applied to the cells in the absence or presence of the Trop2 inhibitor Sacituzumab Govitecan. Treated cells were double-stained with FITC-conjugated annexin V and 7-aminoactinomycin D (7AAD), and data acquisition was performed using a flow cytometer.

4T1 cells [5] = assay: as above; format: cell-based, mouse; details: concomitant with TTFields 1.62 V/cm RMS, 150 kHz, 72 h, FIG. 11
Protocol: Tests were performed on three different cell types: A549, A2780 and 4T1. A549 cells are adenocarcinomec human alveolar basal epithelial cells. A2780 is a human ovarian cancer cell line. 4T1 is a breast cancer cell line derived from the mammary gland tissue of a mouse BALB/c strain. Lastly, like A549 cells (FIGS. 5) and A2780 cells (FIG. 8), concomitant treatment of TTFields with Sacituzumab Govitecan enhanced the apoptotic effect in 4T1 cells (FIG. 11). Mammary carcinoma cells 4T1 were treated for 72 h with TTFields at an intensity of 1.62 V/cm RMS and a frequency of 150 kHz using the Inovitro system. TTFields were applied to the cells in the absence or presence of the Trop2 inhibitor Sacituzumab Govitecan. Treated cells were double-stained with FITC-conjugated annexin V and 7-aminoactinomycin D (7AAD), and data acquisition was performed using a flow cytometer. AnnexinV−7AAD−, live cells; AnnexinV+7AAD−, cells at early apoptosis; AnnexinV+7AAD+, cells at late apoptosis.

A2780 cells [6] = assay: Overall effect (cytotoxic x clonogenic effect), TTFields with or without Sacituzumab Govitecan; format: cell-based, human; details: concomitant with TTFields 1.62 V/cm RMS, 200 kHz, 72 h; re-plated, grown 7-14 days; FIG. 7
Protocol: as §1
(§3) Ovarian carcinoma cells A2780 were treated for 72 h with TTFields at an intensity of 1.62 V/cm RMS and a frequency of 200 kHz using the Inovitro system. TTFields were applied to the cells in the absence or presence of the Trop2 inhibitor Sacituzumab Govitecan. Treated cells were harvested, re-plated, and grown for an additional 7-14 days. Colonies were stained (0.5% crystal violet solution), counted, and clonogenic effect was calculated relative to control. Overall effect was calculated by multiplying the cytotoxic and clonogenic effects.

4T1 cells [7] = assay: as above; format: cell-based, mouse; details: concomitant with TTFields 1.62 V/cm RMS, 150 kHz, 72 h; re-plated, grown 7-14 days; FIG. 10
Protocol: as §1
as §3, with “Mammary” for “Ovarian”, “4T1” for “A2780”, “150” for “200”

A2780 cells [8] = assay: Cytotoxic effect (cell count by flow cytometer), TTFields with or without Sacituzumab Govitecan; format: cell-based, human; details: concomitant with TTFields 1.62 V/cm RMS, 200 kHz, 72 h; FIG. 6
Protocol: as §1
as §2, with “Ovarian carcinoma” for “NSCLC”, “A2780” for “A549”, “200” for “150”

A549 cells [9] = assay: Overall effect (cytotoxic x clonogenic effect), TTFields with or without Sacituzumab Govitecan; format: cell-based, human; details: concomitant with TTFields 1.62 V/cm RMS, 150 kHz, 72 h; re-plated, grown 7-14 days; FIG. 4
Protocol: as §1
as §3, with “NSCLC” for “Ovarian carcinoma”, “A549” for “A2780”, “150” for “200”

Sacituzumab Govitecan
synergistically inhibited: A549 cell growth (cytotoxic effect relative to control cells) (A549 cells [1]) | 4T1 cell growth (cytotoxic effect relative to control cells) (4T1 cells [3]) | A2780 cell growth (cytotoxic effect relative to control cells) (A2780 cells [8])
enhanced: apoptotic effect in A549 cells (A549 cells [2]) | apoptotic effect in A2780 cells (A2780 cells [4]) | apoptotic effect in 4T1 cells (4T1 cells [5])
synergistically elevated: overall effect in A2780 cells (cytotoxic x clonogenic effects) (A2780 cells [6]) | overall effect in 4T1 cells (cytotoxic x clonogenic effects) (4T1 cells [7]) | overall effect in A549 cells (cytotoxic x clonogenic effects) (A549 cells [9])
